Experimental data from the domain aggregation screens of Martell et al. (2025).

Assay: soluble fraction after stress (log2 fold change); higher = more stays soluble; pooled small domains, quantitative proteomics
Details: stress: 50 degC
Method in brief: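 Pooled custom libraries of small protein domains were each held under stress at 50°C. The read-out, high-throughput quantitative proteomics, tracked how much of each protein stayed soluble. This is reported as a base-two log fold change used to indicate aggregation propensity. Higher values mean more protein remains in solution.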

Row | Sequence | soluble fraction (log2)
1 | HMSIGLEGFVGKLGISTSDLRPSGWGEFDAKKLFVVTEGEFVDRKEKIEILSVDGNRILVRKIS | -0.751
2 | HMSILPGVYRHYKGNHYQVFYLAKHSETLEDMVVYQALYGERGIWVRPASMWNETVDDQGKQVKRFTYI | -0.24
3 | HMSILYNAVKGTLVSSGALTADSWYKISSFGTASALPALKVGSIFKTPEGAGDAITLASGDSVYPLTLT | -1.26
4 | HMSINQTIEGKKQGYWIIYGNMRNLQEYLSNEVIEEGQFKNSRKEGVWRKYFPGGQMKSEITYINGRP | -0.309
5 | HMSINTIIAKNLNRLRNERNLSLGQLAELSGVSKVMLSQIEKGDSNPTVNTIWKIASGLNVPYTAILDQP | -0.0848
6 | HMSIPVLKDGTYESWGNEKVYKVGDRVMVGSNGYVAKWWNQDETPEKAIINPNDSPWRPMTESEIMEVLK | -0.0154
7 | HMSISEADAKKIALEKVPGATDSNLRIKTDYDDGIMKYEVKIVYNEMKYEFDIDAATGTILEWESESVY | -0.659
8 | HMSISSSEAARSAVASSGGTVLGVSKASHGGYKAWAVRIQRADGSVVTGYVDRASGTVYDWVVNQAA | -0.3
9 | HMSKEDDSLVVTFRRMLLEEVDLHELSRIDANQRRARLERVIAHLVSREGVILSASERNQLVRRVVDEAV | -0.529
10 | HMSKEEAIQAMKEGKKVTHRFFSSDEWMTIENGFLLLEDGVRISLEDFFNFRSDSLWDNGYELYNPH | -0.162
11 | HMSKFSDTLVYLRKRAGFSQQELADKMEVSRSLVGMYESGQRMPSYEMLEALADIFNVNIDFLTGH | -0.418
12 | HMSKIRSEINKFSSDADKPILEWLFERYHWASQWRFVARFSEQRYGVLSYEINRVWEPTIEGRALYDQL | -2.34
13 | HMSKKMLASIFDTISGIGKKRLKKIWDNYTSLNELKDDSLENIYAKTQIPINLITKIKEKLE | -0.37
14 | HMSKKMTNEEILNFLKKVLIKHGKISGFIIDEDDNGPSSSVVASRFGGLLNAYKLINYTPER | -0.506
15 | HMSKMTLGENLRLLRREKGLSQEQVAQTLFVARQTISKWENGQAEPGVESLKALAKLYGVSLDRLVGA | -0.0483
16 | HMSKPLEVFKLTSEPFGFSFNTALGRSYTVEATGDLGVWKAVELFQGSGGEIRFTAKPTSSGGAQFFRVFV | -0.0927
17 | HMSKPVYILINKPKGFLASSTDKKVKKSVNDLINISNLNKIYPFDNMGRTSSGLLLLSNDLYFKKHFKDKI | 0.341
18 | HMSKQKRIKYFLSILNIKSIKQFRKKDLDYFYQKRFIEIQKSSKDKKLVSNQLIELNAAKEYLDEIDFEN | -1.93
19 | HMSKQQVRSILDDIPNIGETRRKALMRQFQSLEKIREASVGQLREVDGMNEKAAQSVYQFFHK | -0.0486
20 | HMSKQVDVVIYILENTKAADNTYIGTYRKTADGAGVSLDTATKVMRKLQENNFIKKVQNGVYQISPLIMM | -0.889
21 | HMSKRDDLLDQASEWLAKLDRDLTVVEERELKAWLGESAAHRETFIQMAKLWDKMESLSRLTDL | -0.397
22 | HMSKSVEQRRQQIVAWVKEHGQSQVEDLAVRFATSEVTIRKDLAALSQQGLLIRQFGGAVPVPA | -0.661
23 | HMSKTQYTFKEVGSQFQLFAPSTKHTIMISADHPKYGWLTNQDQGRVINVYDTGKMTSSQDYYGLYKEVT | -0.155
24 | HMSKTQYTFREVGSQFELHAPSTNHKIMVDANHPKYGWLSSQEAGRVINVYESGKMTSSQDYYGLYKQS | -0.0727
25 | HMSLANTSVKEMLNDLVKNEEPSKPLSDEALVKIFKEKGVKIARRTVAKYRAELNILPSHLRRT | -0.749
26 | HMSLAVFLQGLLEEKQLKKADVIRRTGMEPTYGYHIFDGHKKHPARSKVLLLALAMGLTVKEAQHLLYYAG | -0.116
27 | HMSLDAAAVASKLIKRLSKSPGRRFALDDLAVDVGLPHEQGRPLVRSALELLVRTQQAVEGPPNVFRLFF | -1.57
28 | HMSLEDMILSLSSRIRRGESLHFRELLVAIETKSGMVTIFMAVLELLKQQVMEMRYEDDDIIFT | -0.912

Row | Sequence | soluble fraction (log2)
29 | HMSLEEIPLEERLGPGGLDPVAVYDSLPREMRDAFDSGSVSALREFVNALPAEDAARHMKAMVDSGLWVPT | 0.0547
30 | HMSLETRRYQLPRTDAQTASGLLRSLSGLPGVREVNLSGEGVAYLKVDSKGFDEQNVIKLLAGE | 0.307
31 | HMSLHSITIPQEFIGAVIGPGGKVIQEIQKQTGTTITITEKDNKGYVDIFGEDKGALDSALARIKEIVAIP | 0.182
32 | HMSLIDYLNELMNEKNITVAQVAKNSGIGEYVYKIFNGERNAKRDTLVAISFGMHLNFEETQLLLRIA | -0.682
33 | HMSLPALALRQADSLAFKQVIYHDRVVPFNTLARDFVLKLTGKPSYGGMTPEQVVGGWLLRPEVWQNEPM | -0.0387
34 | HMSLPAYIKISEVIARRINAGQILAGDRLPNERTMAVEFGVAVGTLRKALYHLQVRGLVTRKHGSGNYINK | -0.177
35 | HMSLPKIVVPTDVTVSQLAKYLEVDAISIIKQLFGMGVVASLNQRLEDEIIQLIGNEFGKEIIFSE | -0.054
36 | HMSLPQSKDAVITILRTLPQLDTRAPEVYKLLGPHALDIILEDPEQVAKKINHVGVATAKLWQQALLGFK | -0.2
37 | HMSLQDYYQVLGVFYNAGDKEIKRRWKELINQYHPDLAQAKGASPEEIENYTLKMAEINNAYEQIMKSRKA | 0.0274
38 | HMSLSASELDQLRMMTKVSHMYHTRGMVQIDIARSLGLSQARVSRLLSAAEDANIVRTVVVA | -0.306
39 | HMSLTAQVFTDRGKVLLSENKFTEAIDQFTKALAMDKVYIEALNRRIEAYQHLGLTELAAKDEALLGTL | -0.755
40 | HMSLTPSQDANRSAILDAARDLFARYGFKKTTMEDIAMALRKGKSSLYYYFKNKEDIFQAVIDS | -1.35
41 | HMSMDAVSLANRLLRFFQKRPGRKFTAADLAFETGMNERTGKSLVTSALEILSRTNQIEADGDGFRLKM | 0.138
42 | HMSMEIQEIIRQLREKNDWSQEDMAERVGLSKNGYAKIERGETNLNLERLEQIANLFDLSVIDLIEMS | -0.796
43 | HMSMEKNWVPSEDVIEILTRAGMNENFIRELIPEFIIYWSERKDVLISYDSKFIEHARLKWAQHNAE | 0.176
44 | HMSMFTPAQVAQTLTVPPSTLRRWAKRFAPFLSPQSGKKRTYTVADLDTFQRIKELSAQGYTFAQIDQAL | -0.738
45 | HMSMLSQERQSLILDIIKEQGSVTVTRLTEILQSSESTVRRDLSYLASKGKINKVHGGATALG | -0.206
46 | HMSMNGNMIHATVIWKGRYFLVKMFFPQLTKPKRAEVQAQIEKAYPGSRVASYHITDYKPGEQFLHV | -1.51
47 | HMSMPEVLSDRELEIFRMIGTGMSTGDIAKKLNISVNTIESHRKKIKDKLGIQKGSELVKAAVQWVSTQQ | -0.262
48 | HMSMSVLFSELDQKDAGVIVEKLKERKIPYELQSGGSAIMVPANVLHETRLQLAAEGLPQSS | 0.0439
49 | HMSMTVHGALRLLQLPTIADRPYTLKEIREAYREQAQNHHPDAGGSADAMRRLNEAYQFLKERYRQA | -0.16
50 | HMSNEKVVKFAQELLVDEERSAISPALISAKIDQVLMFKPAWNEGLDRDAVVNELVRRFSIW | -0.841
51 | HMSNGFFELKTSQQDELIDLIDSHTNFVRTKIEGELITAFLKLPMDAEEFNKLLFTNGIILSHLVKRK | -0.461
52 | HMSNIIGNTAYSAIPDKQYFRLKSETAEKVANYLTENNIPFSGRINGDKTTLTIGQKNVDDYKAAVATVTG | 0.0593
53 | HMSNIVNYEVYVYQNDAWDLLARYPSEKRAEAIEYAKSTEFSLNRPTKVIRETYDLDTQKFQEALIYLSE | -0.239
54 | HMSNLNHSFQYKKNIGRKISLTYLGRDNESISKIYELIDSNDSGILVKNKNVEIFIHYEKIVSAKIKVS | -0.943
55 | HMSNLTDLVSAKEAEVYLHFLESGSTAGMTEAELRAVRKIEELIQSNKIDYNGILRIRNETVK | 0.139
